Data from patent US20080201790A1, “Method and product for regulating cell responsiveness to external signals” (priority 1993, published 2008).

Columns and labels:
Assay type in all cases: cell-based
[1] = system: REF52 cells; assay: Cell morphology after microinjection of expression plasmids; details: microinjected REF52 cells
Description: Swiss 3T3 and REF52 cells were plated on acid-washed glass cover slips in Dulbecco's Modified Eagle's Medium (DMEM) and 10% bovine calf serum (BCS) or newborn calf serum (NCS). Cells were placed in DMEM/0.1% calf serum for overnight incubation prior to microinjection and used for injection at 50-70% confluence. Injections were performed with an Eppendorf automated microinjection system with needles pulled from glass capillaries on a vertical pipette puller (Kopf, Tujunga, Calif.). Cells were injected with pCMVβ-gal in the presence or absence of pCMV5MEKKCOOH or pCMV5BxBRaf at 20-100 ng/μl for each expression plasmid in 100 mM KC1, 5 mM NaPO4, pH 7.3. Following injection cells were placed in 1% NCS for 12-18 hr (Swiss 3T3) or 42 hr (REF52) prior to fixation with paraformaldehyde and staining. Similar results were obtained when cells were placed in 10% NCS after microinjection. Propidium iodide ([…]) was used to stain DNA. X-Gal reactions were performed for six hr.

[2] = system: Swiss 3T3 cells; assay: UV-induced apoptosis in Swiss 3T3 clones with IPTG-inducible MEKKCOOH; details: two hours after ultraviolet irradiation
Description: FIG. 16. Induction of MEKKCOOH expression by IPTG in Swiss 3T3 cells increases the number of condensed cells and stimulates c-Myc transactivation. In panel A, cells were incubated in the presence or absence of 5 mM IPTG for forty eight hours. Cells were stained with acrodine orange and condensed cells quantitated per 1000 cells counted per coverslip. In panel B Swiss 3T3 cells with inducible MEKKCOOH were incubated in the presence or absence of IPTG. The indicated cells were then exposed to UV-C irradiation and then fixed and stained with propidium iodide. The percentage of apoptotic cells was enumerated.
Because stable expression of MEKKCOOH appeared to inhibit clonal expansion of Swiss 3T3 cells under G418 drug selection, clones were isolated having inducible expression of the kinase. The Lac Switch expression system (Stratagene) was used to control the expression of MEKKCOOH. Several independent clones were isolated and their properties analyzed in the presence or absence of IPTG-induced expression of MEKKCOOH. The parental LacR+ clone expressing only the Lac repressor was used as the control. […] This is probably due to a basal level of MEKKCOOH expression in uninduced cells. […] This maybe related to selection of cells during the cloning procedure that adapted to a low, constitutive level of MEKKCOOH expression. […]

[3] = system: Gal4/Elk-1; assay: Gal4-TK-luciferase transactivation analysis, Gal4/Elk-1; details: expression in Swiss 3T3 cells
Excerpt: Swiss 3T3 cells were transfected using calcium phosphate or lipofectamine with the reporter plasmid Gal4-TK-luciferase, which contains four Gal4 binding sites (Sadowski, I., et al. (1988). Nature 335, 563-564). adjacent to a minimal thymidine kinase (TK) promoter that controls expression of luciferase, in the presence or absence of activator plasmids encoding Gal4(1-147)/Myc(7-101) (Gupta et al. (1993) Proc. Natl. Acad. Sci. USA 90:3216-3220), Gal4(1-47)/Elk-1(83-428) (Marais, et al. (1993) Cell 73:381-393) or Gal4(1-147)/c-Jun(1-233) Hibi et al. (1993) Genes & Development 7:2135-2148). Transfections included pCMV5 without a cDNA insert (basal control), pCMV5MEKKCOOH and in some experiments pCMV5BxBRaf. Cells were incubated for 24-48 hr after transfection, lysed and assayed for luciferase activity. Values were normalized to equivalent μg protein for all experiments.

[4] = system: JNK/SAPK; assay: JNK/SAPK activity in Swiss 3T3 clones with inducible MEKKCOOH; details: 17 hours IPTG induction
Description: JNK/SAPK: Activity was measured using GST (glutathione S-transferase)—c-Jun (1-79) BOUND to glutathione-Sepharose-4B (Hibi et al. supra). Cells expressing MEKKCOOH or control cells were lysed in 0.5% Nonidet P40 (NP40), 20 mM Tris-HCl, pH 7.6, 0.25 NaCl, 3 mM EDTA, 3 mM EGTA, 1 mM dithiothreitol, 1 mM phenylmethylsulfonyl fluoride, 2 mM sodium vanadate, 20 μg/ml aprotinin and 5 μg/ml leupeptin. Lysates were centrifuged at 15,000×g for 10 min to remove nuclei and supernatants (25 μg protein) mixed with 10 μl of GST-c-JUN(1-79)-Sepharose (3-5 μg of GST-c-Jun(1-79)). The mixture was rotated at 4° C. for 1 hr, washed 2× in lysis buffer and 1× in kinase buffer (20 mM Hepes, pH 7.5, 10 mM MgCl2, 20 mM β-glycerophosphate, 10 mM p-nitrophenyl phosphate, 1 mM dithiothreitol, 50 μM sodium vanadate). Beads were suspended in 40 μl of kinase buffer with 10 μCi Of [γ^32P] ATP and incubated at 30° C. for 20 min. Samples were boiled in Laemmli buffer and phosphorylated proteins resolved on SDS/10% polyacrylamide gels. To verify the selectivity of the JNK/SAPK assay cell lysates were fractionated by Mono Q ion exchange chromatography and each fraction assayed as described above. Fractions were also immunoblotted with a rabbit antisera recognizing JNK/SAPK. […]

[5] = system: p38/Hog1; assay: p38/Hog1 activity in Swiss 3T3 clones with inducible MEKKCOOH; details: 17 hours IPTG induction

B1: MEKKCOOH: a truncated activated form of MEKK1 including the entire kinase domain (protein)
chain: MAMSASQDALPIVPQLQVENGEDIIIIQQDTPETLPGHTKAKQPYREDAEWLKGQQIGLGAFSSCYQAQDVGTGTLMAVKQVTYVRNTSSEQEEVVEALREEIRMMGHLNHPNIIRMLGATCEKSNYNLFIEWMAGGSVAHLLSKYGAFKESVVINYTEQLLRGLSYLHENQIIHRDVKGANLLIDSTGQRLRIADFGAAARLASKGTGAGEFQGQLLGTIAFMAPEVLRGQQYGRSCDVWSVGCAIIEMACAKPPWNAEKHSNHLALIFKIASATTAPSIPSHLSPGLRDVAVRCLELQPQDRPPSRELLKHPVFRTTW
cytoplasmic and nuclear morphology [1]: dramatic cytoplasmic shrinkage and nuclear condensation
cells morphologically highly condensed, appearing apoptotic [2]: greater than 30%
transactivation function of Elk-1 [3]: markedly activated
JNK/SAPK activity [4]: stimulated JNK/SAPK activity
p38/Hog1 activity [5]: did not activate either ERK or p38/Hog1 activity
